From doi:10.1101/732289 (bioRxiv, 2020) come the findings set out here.

The assay concerns the target human KIX domain of CBP with saturating DUX4 9aaTAD peptide (human, UniProt Q92793;Q9UBX2). Nature of the assay: MST.

Sequence of human KIX domain of CBP with saturating DUX4 9aaTAD peptide (Q92793 587-673, one chain of several): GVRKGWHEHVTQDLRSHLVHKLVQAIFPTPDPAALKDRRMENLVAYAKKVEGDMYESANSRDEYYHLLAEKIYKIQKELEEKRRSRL

B1: DUX4 KBM peptide (E414-E423) (peptide)
peptide: EEEYRALLEE
B1: the Kd was about 1100 nM.
